Measurements as given in the RNAGym collection of RNA variant scans (doi:10.7554/elife.80360).

B1: Twister Ribozyme (parent)
chain: AACACUGCCAAUGCCGGUCCCAAGCCCGGAUAAAAGUGGAGGGGGCGG

Variants of: B1
Experiment: self-cleavage, relative activity (ratio to wild type); higher = more cleavage; co-transcriptional

Variant	self-cleavage
U18G G28C	0.102
U18G G28A	0.0711
U18A A22G	0.0469
U18A A22C	0.485
G17C C26U	0.17
G17C C26A	0.286
U18A G41C	0.0769
U18A G41U	0.125
U18A G42C	0.215
U18A G42A	0.104
G16U A32G	1.02
G16U A32U	1
U18C	0.664
U18A	0.667
U18G	0.0785
U18C G41U	0.13
U18C G41C	0.0753
U18C G29U	0.27
U18C G29C	0.0613
U18G G39A	0.107
U18G G39U	0.0734
U18C A30U	0.512
G17A A34U	0.137
G17A A34G	0.211

Variant	self-cleavage
G17A C25G	0.0728
G17A C25A	0.164
G17A C25U	0.255
G17U A30G	0.265
U18A C26A	0.313
U18A C26U	0.158
U18C G38U	0.261
G17U C19A	0.0777
U18G C46U	0.129
U18G C46G	0.0845
G16U G47A	0.378
G16U G47U	0.653
U18C C26A	0.0527
U18G C20U	0.102
U18G G29U	0.0942
U18G G29A	0.089
U18A G29A	0.41
G17U G44C	0.293
U18C G42A	0.0575
U18C G42U	0.0957
G16U G36A	0.426
G16U G36U	0.124
G16C C46G	0.262
G16C C46A	0.693

Variant	self-cleavage
G17A G45C	0.278
U18A G43U	0.125
U18A G43C	0.144
G16C G17U	0.174
G16C G17C	0.0907
U18A G47U	0.174
G17C G47C	0.142
G17C G47A	0.0753
U18A A33U	0.391
U18A A33G	0.203
G17U C27U	0.207
G17U C27G	0.424
G16C C25A	0.0993
G16U A22C	0.925
G16U A22G	0.21
G16U A22U	0.759
G16U G24U	0.0815
G16U G24A	0.129
G16C G39C	0.119
G16C G39A	0.28
G16C G45A	0.161
G16C G45U	0.379
G16C G45C	0.249
G17U G45A	0.148

Variant	self-cleavage
U18A C25A	0.0777
U18A C25G	0.0662
G17C G28C	0.0667
G17C G28A	0.069
G17C G28U	0.0606
G16C U18A	0.336
G16C U18C	0.114
G16U G29C	0.544
G16U G29A	0.946
G16C U31G	0.663
U18C G47A	0.288
U18C G47U	0.288
U18C G47C	0.162
U18G A40G	0.0494
U18G A40U	0.0452
U18C A35G	0.139
U18C A35C	0.641
G16C G28U	0.383
G16C G28A	0.194
G16U G43U	0.313
G16U G43C	0.183
G16U G43A	0.203
G16U G39A	0.595
G16U G39U	0.225

Variant	self-cleavage
U18A G48A	0.279
G17U C46G	0.301
G16C G41C	0.0971
G16C G41U	0.103
U18C G24A	0.0865
U18C A40G	0.121
U18C A40C	0.0612
U18C A40U	0.113
G16U U31G	1.04
G17A C20U	0.373
G17C C19G	0.0591
G17C C19U	0.105
G17C C19A	0.0513
U18A A30C	0.104
G17C G44A	0.109
G17C G44C	0.122
G16U G38U	0.914
U18C U31C	0.569
G17C A35U	0.138
G17C A40C	0.117
G17C A40U	0.0929
U18C A22C	0.397
U18C A22U	0.243
G17A A22G	0.136

Variant	self-cleavage
G17A A22U	0.258
G17A A22C	0.669
U18G G42C	0.0775
U18G G42A	0.0696
U18C A32U	0.464
U18G G36U	0.083
G16U C27A	0.908
G16U C21G	0.101
G16U C21A	0.137
G16U C21U	0.105
G17A G42A	0.107
U18A G24U	0.094
U18A G24A	0.0868
U18A G24C	0.0951
G17A A33G	0.451
G17A G43U	0.123
G17A G43C	0.129
G17U C26U	0.458
G17U C26G	0.637
G17C G45A	0.132
U18A G38U	0.144
U18G C27U	0.0822
U18G C27A	0.0641
U18G C27G	0.0399

Variant	self-cleavage
G16U A40G	0.206
U18G A33G	0.0866
U18G A33C	0.0995
G16U G41A	0.278
U18C A33C	0.386
U18A U37G	0.137
U18A U37A	0.0711
U18G C21U	0.0712
U18G G38A	0.0601
G17U G36A	0.124
U18C C19G	0.0747
U18C C19U	0.247
G17U A33U	0.257
G17U A33C	0.199
G17U A33G	0.317
G17C G43C	0.0789
U18A C27U	0.385
G17C C25U	0.0911
G17C C25A	0.0882
G17U C20A	0.0851
U18A G44U	0.543
G16U	1.07
U18G A34G	0.079
U18C G44C	0.49

Variant	self-cleavage
U18C G44U	0.498
U18C C27U	0.182
U18C C27A	0.0979
U18A G45C	0.155
U18A G45A	0.32
G17A C27G	0.243
G17A C27U	0.403
U18A A34C	0.113
G16U G45C	0.554
G16U G45U	0.819
G16U A23U	0.238
G17U G29U	0.158
G17U G29C	0.0894
G17U G29A	0.118
G17A A35U	0.869
G16C G24C	0.0655
G16C G24A	0.0685
G16C C27U	0.854
G16C G29U	0.194
U18G C19G	0.114
U18G C19A	0.0794
G17C C20G	0.0846
U18C C25U	0.16
U18C C25G	0.104

Variant	self-cleavage
U18A G39A	0.104
U18A C21U	0.0595
G17U C21U	0.0901
G17U G28A	0.11
G17U G28U	0.122
G17A A40G	0.171
G17A A40C	0.105
G17A A40U	0.117
G17U A22C	0.406
G17U A22U	0.161
G17U G43C	0.0878
G17U G43A	0.13
G16U U18G	0.0727
G16U U18A	0.605
U18A A23C	0.372
U18A A23U	0.753
G17C G39A	0.0934
G17U G47U	0.181
G17U G47C	0.183
U18C G45U	0.228
G17A C21G	0.073
G17A G28U	0.258
U18A C20G	0.0551
U18A C20U	0.168

Variant	self-cleavage
G17A G24A	0.118
U18C G36U	0.0651
U18C G36A	0.158
G17U U18G	0.106
G17U U18A	0.148
G17C A32U	0.109
G17U G42U	0.126
U18G A32C	0.0661
U18G A32U	0.0793
G16U G42A	0.26
G16U G42U	0.166
G16C G36C	0.0717
G16C G36U	0.113
U18C C21A	0.0881
U18C C21U	0.0707
G17C G48C	0.152
G17U A40C	0.123
G17U A40G	0.0578
G17U U37G	0.12
G17U U37A	0.092
U18A G36U	0.172
U18A G36A	0.111
U18A G36C	0.0768
G16U G17C	0.105

Variant	self-cleavage
U18A C19U	0.266
U18A C19G	0.0926
U18C G39A	0.111
U18C G39C	0.108
G17C A22G	0.0562
G17C U18C	0.1
G16U C46G	0.963
U18G A30C	0.14
U18G A30G	0.0594
U18G A23G	0.0817
U18G A23C	0.0482
U18C U37G	0.155
U18C U37C	0.0756
G17A G39C	0.105
G17A G39U	0.165
G17C G36A	0.0801
G17A A30G	0.615
G17A A30U	0.695
G17C G42U	0.0737
G17A G44C	0.733
G17A G44A	0.671
U18G A22C	0.0631
G17C G24A	0.0848
G17C G24C	0.0583

Variant	self-cleavage
G17C G24U	0.0734
G17U A35G	0.1
G17U A35C	0.305
U18C C20U	0.375
G17U G24C	0.0691
G17U G24U	0.0893
G17U G48C	0.467
G17U G48A	0.316
G17U G48U	0.316
G17C A34U	0.0853
G17C A34G	0.112
G17A G48A	0.661
G17C C21A	0.0572
G16C U37C	0.0928
G16C U37A	0.165
G16C C26A	0.35
G16U G28A	0.641
G16U G28C	1.02
G17C C27U	0.0804
G17C C27G	0.195
G16U U37C	0.261
U18G G41C	0.0434
G16U A30C	0.804
G16U A30U	1.08

Variant	self-cleavage
G17A G38U	0.468
G17A G38C	0.54
G16C G38C	0.572
G17U U31G	0.339
G17U U31A	0.471
U18A A40C	0.133
U18A A40U	0.147
G17A G41C	0.164
G16C G42U	0.115
G16C G42A	0.139
G16C G42C	0.121
G16U C25G	0.154
G16U C25A	0.206
G17A U37C	0.142
G17A U37G	0.175
G17C A33G	0.093
G17C A33U	0.0842
G17U G39A	0.119
U18G G24U	0.0765
G17U C25U	0.204
G16C G43A	0.148
U18C G28A	0.181
U18C G28C	0.124
G17C G38U	0.073

Variant	self-cleavage
G17U G38A	0.206
G17U G38C	0.203
G17C G29A	0.0678
G17C G29U	0.0973
U18A U31A	0.584
G17C U31A	0.138
G17A C26A	0.78
G17A C26G	0.442
G16C C21G	0.0586
G16C C21U	0.0834
U18C A34G	0.142
U18C A34C	0.0598
U18C A34U	0.149
U18G C26A	0.0682
U18G C26U	0.0716
G17A U31A	0.715
G17A U31C	0.746
G17U A34C	0.0829
G17U A34G	0.182
U18G A35U	0.0933
U18G A35G	0.0984
G17C C46A	0.107
